In this assay the target is DOPAL-derived αS oligomers (αS incubated with 3,4-dihydroxyphenylacetaldehyde). In words: SDS-PAGE of SEC fractions.

A word on the stoichiometry N: it is the number of molecules, sites or subunits per partner or assembly.

Substance “DOPAL-derived αS oligomers (αS incubated with 3,4-dihydroxyphenylacetaldehyde)” displayed a stoichiometry N of 2.

For the origin of these results see article PMC8568656.
